Reference: the Human Domainome abundance scans (Beltran et al. 2025)
± gives the uncertainty stated by the source.

B1: Far upstream element-binding protein 1, residues 184 to 257; numbered along this chain, Q96AE4 (parent)
chain: GNAVQEIMIPASKAGLVIGKGGETIKQLQERAGVKMVMIQDGPQNTGADKPLRITGDPYKVQQAKEMVLELIRD

Variants of: B1
Test: abundance fitness (aPCA) (normalised: wild type 0, dead -1); higher = more abundant; growth selection in yeast, the domain comes from the species named
Conditions: Homo sapiens

Abundance fitness, by site and new letter:
R31: L -0.125 ± 0.031 | K 0.016 ± 0.039 | V -0.113 ± 0.031 | I -0.12 ± 0.058 | P -0.484 ± 0.044 | D -0.028 ± 0.04 | M -0.096 ± 0.039 | T -0.042 ± 0.035 | Q 0.017 ± 0.038 | S -0.008 ± 0.03
K26: R -0.021 ± 0.027 | P -0.447 ± 0.04 | D -0.111 ± 0.044 | N -0.09 ± 0.053 | C -0.179 ± 0.043 | I 0.013 ± 0.056 | M -0.122 ± 0.044 | E -0.093 ± 0.035 | V -0.157 ± 0.034 | H -0.198 ± 0.057 | Y -0.041 ± 0.048 | T -0.066 ± 0.035 | L -0.087 ± 0.032 | G -0.098 ± 0.027 | F -0.129 ± 0.054
T24: D -0.208 ± 0.048 | V -0.029 ± 0.033 | F -0.101 ± 0.063 | K 0.007 ± 0.041 | Q -0.012 ± 0.035 | I -0.11 ± 0.045 | R -0.013 ± 0.026 | P -0.206 ± 0.033 | E -0.08 ± 0.038 | G -0.008 ± 0.027 | W -0.224 ± 0.035 | S -0.078 ± 0.031 | C -0.061 ± 0.041 | A -0.075 ± 0.032 | Y -0.116 ± 0.054 | N -0.075 ± 0.058 | H -0.029 ± 0.049 | M 0.002 ± 0.048 | L -0.099 ± 0.031
E30: Q -0.035 ± 0.04 | M 0.025 ± 0.041 | Y -0.114 ± 0.06 | V -0.029 ± 0.031 | T -0.071 ± 0.038 | K -0.01 ± 0.042 | A -0.039 ± 0.035 | I -0.03 ± 0.054 | D -0.024 ± 0.046 | H -0.016 ± 0.048 | R 0.01 ± 0.027 | S -0.007 ± 0.032 | L -0.026 ± 0.031 | G -0.122 ± 0.028
V34: E -0.753 ± 0.046 | R -0.974 ± 0.04 | C -0.086 ± 0.043 | N -0.68 ± 0.087 | D -0.807 ± 0.067 | M -0.808 ± 0.059 | F -1.35 ± 0.15 | H -0.87 ± 0.096 | Y -1.11 ± 0.12 | I -0.432 ± 0.061 | T -0.232 ± 0.04 | L -0.567 ± 0.036 | S -0.639 ± 0.041 | A -0.153 ± 0.033 | K -0.946 ± 0.074 | W -1.35 ± 0.086 | P -0.918 ± 0.065 | Q -0.833 ± 0.063 | G -0.767 ± 0.033
V37: H -0.178 ± 0.058 | R -0.019 ± 0.026 | E -0.006 ± 0.034 | C 0.009 ± 0.04 | N -0.065 ± 0.05 | I -0.049 ± 0.048 | S -0.048 ± 0.031
